Assay results reported in PMC6232179.

Target: His-tagged ER luminal domain of IRE1α (IRE1-NLD-His6-KDEL)
Test: SPR; IRE1-NLD amine-coupled on a CM5 chip (~1500 RU); COX-2 flowed at 0 to 10000 nM in 10 mM Hepes pH 7.4, 150 mM NaCl, 0.005% P20, 30 µl/min; BIACore T200; triplicate

- Kd: 880 nM
B1: COX-2 (prostaglandin endoperoxide synthase 2, PTGS2), purified His-tagged protein (enzyme)
chain: ANPCCSHPCQNRGVCMSVGFDQYKCDCTRTGFYGENCSTPEFLTRIKLFLKPTPNTVHYILTHFKGFWNVVNNIPFLRNAIMSYVLTSRSHLIDSPPTYNADYGYKSWEAFSNLSYYTRALPPVPDDCPTPLGVKGKKQLPDSNEIVEKLLLRRKFIPDPQGSNMMFAFFAQHFTHQFFKTDHKRGPAFTNGLGHGVDLNHIYGETLARQRKLRLFKDGKMKYQIIDGEMYPPTVKDTQAEMIYPPQVPEHLRFAVGQEVFGLVPGLMMYATIWLREHNRVCDVLKQEHPEWGDEQLFQTSRLILIGETIKIVIEDYVQHLSGYHFKLKFDPELLFNKQFQYQNRIAAEFNTLYHWHPLLPDTFQIHDQKYNYQQFIYNNSILLEHGITQFVESFTRQIAGRVAGGRNVPPAVQKVSQASIDQSRQMKYQSFNEYRKRFMLKPYESFEELTGEKEMSAELEALYGDIDAVELYPALLVEKPRPDAIFGETMVEVGAPFSLKGLMGNVICSPAYWKPSTFGGEVGFQIINTASIQSLICNNVKGCPFTSFSVPDPELIKTVTINASSSRSGLDDINPTVLLKERSTEL
modifications: red fluorescent tag, covalently labelled (only in the MST of Figure 4B)
